Reference: patent US20180194839A1 (Novartis, published 2018)
Where a chain is given by its changes, count along the chain named. Numbers in names are those of the source. Read-outs that look alike come from different tables or passages of the source.

T1: recombinant human IL-17A (SEQ ID NO: 76) (human, UniProt Q16552 24-155, limits assumed)
T1 sequence: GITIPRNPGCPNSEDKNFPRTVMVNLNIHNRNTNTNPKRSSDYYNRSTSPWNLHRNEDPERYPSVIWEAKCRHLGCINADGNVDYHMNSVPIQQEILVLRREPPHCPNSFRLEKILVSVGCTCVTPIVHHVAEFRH

T2: recombinant human IL-17A (SEQ ID NO: 78) (human, UniProt Q16552 24-155, limits assumed)
T2 construct: homodimer; also called huIL-17A; hulL-17A
T2 sequence: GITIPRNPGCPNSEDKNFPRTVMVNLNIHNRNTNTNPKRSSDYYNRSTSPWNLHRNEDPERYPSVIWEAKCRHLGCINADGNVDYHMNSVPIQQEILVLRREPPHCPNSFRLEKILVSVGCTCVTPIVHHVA

T3: recombinant mouse IL-17A (SEQ ID NO: 83) (mouse, UniProt Q62386 26-158)
T3 sequence: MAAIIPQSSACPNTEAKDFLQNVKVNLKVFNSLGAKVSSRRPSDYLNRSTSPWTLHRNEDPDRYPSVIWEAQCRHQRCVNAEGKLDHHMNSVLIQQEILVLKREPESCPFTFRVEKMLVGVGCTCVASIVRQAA

T4: human IL-17A (construct not stated) (human, UniProt Q16552 24-155, limits assumed)
T4 sequence: T1 sequence

T5: recombinant cynomolgus IL-17A (SEQ ID NO: 79) (cynomolgus monkey, UniProt Q16552 24-155 (human entry), limits assumed)
T5 construct: also called cynoIL-17A; cyno IL-17A
T5 chain: T2 sequence with T3A, P8S, N34S, I77V, N78K, P104R

T6: recombinant human IL-17A/F heterodimer (human, UniProt Q16552 24-155; Q96PD4 31-163, limits assumed)
T6 construct: heterodimer of an IL-17A subunit and an IL-17F subunit; also called huIL-17A/F; rhuIL-17A/F
T6 sequence (looked up) 1: T2 sequence
T6 sequence (looked up) 2: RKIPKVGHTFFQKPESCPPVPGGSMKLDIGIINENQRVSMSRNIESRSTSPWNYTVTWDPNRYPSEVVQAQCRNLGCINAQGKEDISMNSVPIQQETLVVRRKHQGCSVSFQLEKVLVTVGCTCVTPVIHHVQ

T7: recombinant rat IL-17A (SEQ ID NO: 85) (rat, UniProt Q61453 18-150)
T7 construct: also called rratIL-17A; rIL-17A
T7 sequence: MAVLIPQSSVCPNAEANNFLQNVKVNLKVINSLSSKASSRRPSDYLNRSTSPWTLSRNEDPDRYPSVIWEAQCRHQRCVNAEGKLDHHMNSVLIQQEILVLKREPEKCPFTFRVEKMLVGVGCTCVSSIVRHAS

B1: XAB2 (antibody, human IgG1, kappa, V domains shown)
VH: EVQLVESGGDLVQPGGSLRLSCAASGFTFSSYWMSWVRQAPGKGLEWVANIKQDGSEKYYVDSVKGRFTISRDNAKNSLYLQMNSLRAEDTAVYYCARDRGSLYYWGQGTLVTVSS
VL: AIQLTQSPSSLSASVGDRVTITCRPSQVIISALAWYQQKPGKAPKLLIYDASSLEQGVPSRFSGSVSGTDFTLTISSLQPEDFATYYCQQFDSYPLTFGGGTKVEIKR
B2: MB464 (Fab, V domains shown)
VH: B1 VH
VL: AIQLTQSPSSLSASVGDRVTITCRPSQGIIYQLAWYQQKPGKAPKLLIYDASSLENGVPSRFSGSGSGTDFTLTISSLQPEDFATYYCQQFNSYPLTFGGGTKVEIK
notes: 30 stays I); heavy chain C-terminal Flag tag
B3: XAB5 (antibody, human IgG1, kappa, V domains shown)
VH: B1 VH
VL: B1 VL with V28G, I30N, S31W, A32E, Q56N, V66G, D92N
B4: MB444 (Fab, V domains shown)
VH: B1 VH
VL: B2 VL with I30L, Y31W, Q32E
notes: heavy chain C-terminal Flag tag
B5: MB435 (Fab, V domains shown)
VH: B1 VH
VL: B2 VL with I30N, Y31W, Q32E
notes: as for B4
B6: MB463 (Fab, V domains shown)
VH: B1 VH
VL: B2 VL with I30Y, Y31F, Q32E
notes: as for B4
B7: XAB3 (antibody, human IgG1, kappa, V domains shown)
VH: B1 VH
VL: B1 VL with V28G, I30Y, S31W, A32E, V66G, D92N
notes: also called MB468 N56Q
B8: MB440 (Fab, V domains shown)
VH: B1 VH
VL: B2 VL with I30L, Y31W
notes: as for B4
B9: MB468 (Fab, V domains shown)
VH: B1 VH
VL: B2 VL with I30Y, Y31W, Q32E
notes: heavy chain C-terminal Flag tag; with N56Q formatted to IgG as XAB3

Legend:
[1] = biological target: T1, recombinant human IL-17A (SEQ ID NO: 76); assay: cell-based or functional assay
[2] = biological target: T2, recombinant human IL-17A (SEQ ID NO: 78); assay: SPR (Biacore), captured antibody, antigen as analyte
[3] = biological target: T3, recombinant mouse IL-17A (SEQ ID NO: 83); assay: cell-based or functional assay
[4] = biological target: T4, human IL-17A (construct not stated); assay: cell-based or functional assay
[5] = biological target: T1, recombinant human IL-17A (SEQ ID NO: 76); assay: cell-based or functional assay; remark: listed apart in the source
[6] = biological target: T4, human IL-17A (construct not stated); assay: ELISA on coated huIL-17A, crude Fab extract, overnight with 200 nM XAB1 Fab as competitor
[7] = biological target: T4, human IL-17A (construct not stated); assay: ELISA on coated huIL-17A, crude Fab extract, wash of at least 3 h
[8] = biological target: T4, human IL-17A (construct not stated); assay: ELISA titration of purified Fab on plate-coated huIL-17A, normalized signal; x axis printed as log10 of Fab concentration (M)
[9] = biological target: T4, human IL-17A (construct not stated); assay: ELISA on coated huIL-17A, crude Fab extract
[10] = biological target: T5, recombinant cynomolgus IL-17A (SEQ ID …); assay: SPR (Biacore), captured antibody, antigen as analyte
[11] = biological target: T2, recombinant human IL-17A (SEQ ID NO: 78); assay: as above; remark: listed apart in the source
[12] = biological target: T3, recombinant mouse IL-17A (SEQ ID NO: 83); assay: as above
[13] = biological target: T6, recombinant human IL-17A/F heterodimer; assay: as above
[14] = biological target: T7, recombinant rat IL-17A (SEQ ID NO: 85); assay: as above

Row | Binder | IC50, huIL-6 secretion by BJ cells; stimulus rhuIL-17A (0.5 nM) [1] | IC50, KC secretion by CMT-93 cells; stimulus mIL-17A (0.15 nM) [3] | EC50, in vitro neutralization activity, T = 0 weeks [4] | EC50, in vitro neutralization activity, T = 4 weeks at pH 8, 40°C (forced deamidation) [4] | IC50, huGROα secretion by BJ cells; stimulus rhuIL-17A (0.5 nM) [5] | Competition ELISA (normalized to XAB1 Fab) [6] | Off-rate ELISA (normalized to XAB1 Fab) [7] | EC50 (read off the curve) [8] | Classic ELISA (normalized to XAB1 Fab) [9] | further results
1 | B1 | 0.64 nM | 20.9 nM | 0.045 µg/mL | 47 ng/ml | 0.4 nM | – | – | – | – | Kd [2]: 0.0176 nM; koff [2]: 7.12e-05 s⁻¹; kon [2]: 4.09e+06 M⁻¹ s⁻¹
2 | B2 | – | – | – | – | – | 36.9 ratio to XAB1 Fab | 34.9 ratio to XAB1 Fab | ~2 nM | 2.7 ratio to XAB1 Fab | –
3 | B3 | 0.54 nM | 7.8 nM | 0.045 µg/mL | 61 ng/ml | 0.46 nM | – | – | – | – | –
4 | B4 | – | – | – | – | – | 52.4 ratio to XAB1 Fab | 48.9 ratio to XAB1 Fab | ~2 nM | 3.2 ratio to XAB1 Fab | –
5 | B5 | – | – | – | – | – | 44.6 ratio to XAB1 Fab | 44.7 ratio to XAB1 Fab | ~2 nM | 2.7 ratio to XAB1 Fab | –
6 | B6 | – | – | – | – | – | 31.6 ratio to XAB1 Fab | 34.2 ratio to XAB1 Fab | ~3 nM | 2.7 ratio to XAB1 Fab | –
7 | B7 | 0.5 nM | < 1 nM | 0.04 µg/mL | 40 ng/ml | 0.42 nM | – | – | – | – | Kd [10]: 0.0349 nM; koff [10]: 4.23e-05 s⁻¹; kon [10]: 1.21e+06 M⁻¹ s⁻¹; Kd [11]: 0.00958 nM; koff [11]: 5.01e-05 s⁻¹; kon [11]: 5.48e+06 M⁻¹ s⁻¹; Kd [12]: 0.174 nM; koff [12]: 0.000101 s⁻¹; kon [12]: 587000 M⁻¹ s⁻¹; Kd [13]: 0.0329 nM; koff [13]: 0.000103 s⁻¹; kon [13]: 3.37e+06 M⁻¹ s⁻¹; Kd [14]: 0.0826 nM; koff [14]: 7.59e-05 s⁻¹; kon [14]: 905000 M⁻¹ s⁻¹
8 | B8 | – | – | – | – | – | 54 ratio to XAB1 Fab | 52.5 ratio to XAB1 Fab | ~0.6 nM | 2.8 ratio to XAB1 Fab | –
9 | B9 | – | – | – | – | – | 60 ratio to XAB1 Fab | 43.9 ratio to XAB1 Fab | ~2 nM | 2.8 ratio to XAB1 Fab | –
